The record followed here is paper PMC11336141.

The target of this experiment is human somatostatin receptor 2, Tango construct (human) (UniProt P30874).
Sequence of human somatostatin receptor 2, Tango construct (human) (P30874 whole entry): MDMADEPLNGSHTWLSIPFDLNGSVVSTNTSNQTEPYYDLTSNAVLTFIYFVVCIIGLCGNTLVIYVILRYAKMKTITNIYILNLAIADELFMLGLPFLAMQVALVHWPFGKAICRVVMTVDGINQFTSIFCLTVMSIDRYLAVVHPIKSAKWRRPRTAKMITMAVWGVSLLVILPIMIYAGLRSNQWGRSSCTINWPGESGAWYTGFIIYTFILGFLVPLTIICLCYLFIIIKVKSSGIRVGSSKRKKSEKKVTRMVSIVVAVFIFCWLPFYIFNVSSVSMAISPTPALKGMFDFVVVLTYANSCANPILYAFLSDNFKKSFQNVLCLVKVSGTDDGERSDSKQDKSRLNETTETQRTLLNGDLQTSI

Substance octreotide (peptide) showed an EC50, PRESTO-Tango β-arrestin recruitment assay of 0.9 nM.
